# From patent US20250066499A1 (SUNSHINE GUOJIAN PHARMACEUTICAL SHANGHAI, published 2025)
# T1: CD73-ND-E143A (human, UniProt P21589 27-317)
# T1 construct: Alanine mutant of CD73-ND
# T1 sequence: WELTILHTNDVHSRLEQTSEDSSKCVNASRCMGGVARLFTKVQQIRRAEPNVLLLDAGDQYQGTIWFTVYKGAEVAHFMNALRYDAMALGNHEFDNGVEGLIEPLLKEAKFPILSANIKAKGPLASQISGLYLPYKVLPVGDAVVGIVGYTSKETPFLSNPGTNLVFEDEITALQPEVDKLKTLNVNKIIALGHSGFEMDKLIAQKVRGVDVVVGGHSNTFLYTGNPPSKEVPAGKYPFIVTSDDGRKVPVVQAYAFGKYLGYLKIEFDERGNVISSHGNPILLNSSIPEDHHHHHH
# T2: CD73-ND-L181A (human, UniProt P21589 27-317)
# T2 construct: Alanine mutant of CD73-ND
# T2 sequence: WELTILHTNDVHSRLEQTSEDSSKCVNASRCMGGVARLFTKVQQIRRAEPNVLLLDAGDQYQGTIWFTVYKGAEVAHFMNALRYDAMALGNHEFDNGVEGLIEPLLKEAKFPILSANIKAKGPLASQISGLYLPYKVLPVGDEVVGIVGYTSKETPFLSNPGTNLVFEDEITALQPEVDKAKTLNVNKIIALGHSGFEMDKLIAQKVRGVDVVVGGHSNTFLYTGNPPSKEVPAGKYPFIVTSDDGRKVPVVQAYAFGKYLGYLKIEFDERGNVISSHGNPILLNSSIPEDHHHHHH
# T3: CD73-ND-K182A (human, UniProt P21589 27-317)
# T3 construct: Alanine mutant of CD73-ND
# T3 sequence: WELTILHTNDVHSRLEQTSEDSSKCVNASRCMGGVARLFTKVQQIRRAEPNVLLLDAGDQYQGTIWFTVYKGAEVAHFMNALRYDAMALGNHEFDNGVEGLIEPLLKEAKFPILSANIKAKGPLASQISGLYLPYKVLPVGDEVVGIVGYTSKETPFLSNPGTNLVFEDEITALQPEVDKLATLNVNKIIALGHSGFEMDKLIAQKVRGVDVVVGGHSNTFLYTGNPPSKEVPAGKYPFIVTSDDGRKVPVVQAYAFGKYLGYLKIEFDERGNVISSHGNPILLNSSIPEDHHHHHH
# T4: CD73-ND-K180A (human, UniProt P21589 27-317)
# T4 construct: Alanine mutant of CD73-ND
# T4 sequence: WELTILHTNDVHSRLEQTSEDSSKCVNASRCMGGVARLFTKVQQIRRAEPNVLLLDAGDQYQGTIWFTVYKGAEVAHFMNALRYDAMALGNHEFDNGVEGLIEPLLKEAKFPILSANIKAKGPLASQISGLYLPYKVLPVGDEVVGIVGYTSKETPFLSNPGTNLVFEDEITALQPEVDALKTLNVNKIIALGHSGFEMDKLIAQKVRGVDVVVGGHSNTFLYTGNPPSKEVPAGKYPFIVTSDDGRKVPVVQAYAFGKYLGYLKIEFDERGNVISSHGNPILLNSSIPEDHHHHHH
# T5: CD73-ND-his (human, UniProt P21589 27-317)
# T5 construct: Biotinylated and captured on streptavidin in the ELISA
# T5 sequence: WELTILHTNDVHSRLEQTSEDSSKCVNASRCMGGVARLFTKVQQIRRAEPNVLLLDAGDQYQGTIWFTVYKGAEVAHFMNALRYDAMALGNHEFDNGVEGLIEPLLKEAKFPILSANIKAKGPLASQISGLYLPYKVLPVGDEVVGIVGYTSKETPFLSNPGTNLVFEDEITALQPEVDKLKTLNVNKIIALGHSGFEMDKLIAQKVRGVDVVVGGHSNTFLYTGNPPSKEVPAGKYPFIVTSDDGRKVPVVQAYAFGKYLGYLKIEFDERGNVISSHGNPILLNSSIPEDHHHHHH
# T6: CD73-ND-V144A (human, UniProt P21589 27-317)
# T6 construct: Alanine mutant of CD73-ND
# T6 sequence: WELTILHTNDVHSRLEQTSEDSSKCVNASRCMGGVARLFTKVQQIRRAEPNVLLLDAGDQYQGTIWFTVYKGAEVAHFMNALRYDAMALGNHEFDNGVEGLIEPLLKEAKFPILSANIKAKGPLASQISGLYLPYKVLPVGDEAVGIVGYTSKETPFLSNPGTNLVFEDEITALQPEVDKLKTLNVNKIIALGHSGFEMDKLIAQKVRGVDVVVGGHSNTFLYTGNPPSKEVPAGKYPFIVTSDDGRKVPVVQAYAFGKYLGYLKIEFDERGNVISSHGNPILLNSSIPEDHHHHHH
# Assays:
# CD73-ND-E143A = target: T1, CD73-ND-E143A; experiment: ELISA; decline multiple of Top against CD73-ND
# Description: (§1) The ELISA plates were coated with SA protein diluted to 1.5 μg/mL in coating buffer (50 mM carbonate coating buffer, pH 9.6) and incubated overnight at 4° C. The supernatant was discarded, and the plates were washed three times with PBST. Then, 5% skimmed milk powder prepared with PBS was added for blocking and the plates were incubated for 2 h at 37° C. After washing the plates once with PBST, CD73-biotin protein (prepared by biotinylating CD73-His protein according to the EZ-Link NHS-Biotin Reagent instructions) was diluted to 0.5 μg/mL and added at 100 μL/well for incubation at room temperature for 1 h. The plates were washed three times with PBST, and the prepared murine-derived monoclonal antibodies against human CD73 were serially diluted with 1% BSA buffer prepared with PBST and added to the ELISA plates at 100 μl/well. The plates were incubated at 37° C. for 1 h. After washing the plates three times with PBST, HRP-labeled goat anti-mouse IgG secondary antibody was added and the plates were incubated for 30 min at 37° C. After washing the plates three times with PBST, the residual droplets were patted dry on absorbent paper as much as possible. Then, 100 μl of TMB color developing solution was added to each well, and the plates were incubated in the dark at room temperature for 5 min for color development. Subsequently, 50 μl of 2M H₂SO₄ stop solution was added to each well to terminate the substrate reaction. The OD values were read at 450 nm using a multimode microplate reader to analyze the binding ability of the tested antibodies to the target antigen human CD73-His.
# (§2) Referring to the experimental method in Example 3, the affinity of 48A11-HuV33 for various mutant proteins of CD73-ND was determined. The SA protein was diluted to 1 μg/mL for coating the ELISA plates, and the biotinylated CD73 protein (CD73-biotin) was used at a concentration of 0.1 μg/mL.
# CD73-ND-L181A [1] = target: T2, CD73-ND-L181A; experiment: ELISA; decline multiple of Top against CD73-ND
# Description: as §1, §2
# CD73-ND-K182A = target: T3, CD73-ND-K182A; experiment: ELISA; decline multiple of Top against CD73-ND
# Description: as §1, §2
# CD73-ND-K180A = target: T4, CD73-ND-K180A; experiment: ELISA; decline multiple of EC50 against CD73-ND
# Description: as §1, §2
# CD73-ND-his = target: T5, CD73-ND-his; experiment: ELISA; decline multiple of EC50 against CD73-ND
# Description: as §1, §2
# CD73-ND-L181A [2] = target: T2, CD73-ND-L181A; experiment: ELISA; decline multiple of EC50 against CD73-ND
# Description: as §1, §2
# CD73-ND-V144A = target: T6, CD73-ND-V144A; experiment: ELISA; decline multiple of EC50 against CD73-ND
# Description: as §1, §2
binder,measurement,setting,value
"48A11-HuV33 (antibody, human IgG4, V domains shown, Humanized) VH: QVQLVQSGAEVKKPGASVKVSCKASGYTFTSYWMHWVRQAPGQGLEWIGEINPSIGRTNYNEKFKSRVTLTRDTSTSTAYMELSSLRSEDTAVYYCARRVYGTMDYWGQGTLVTVSS VL: DIQMTQSPSSLSASVGDRVTITCKASQDINSYLSWFQQKPGKSPKLLIYRANIWVDGVPSRFSGSGSGQDYTFTISSLQPEDIATYYCLQYDELYTFGQGTKVEIK",Ratio(Top),CD73-ND-E143A,1.1 fold
same,Ratio(Top),CD73-ND-L181A [1],1.9 fold
same,Ratio(Top),CD73-ND-K182A,1 fold
same,Ratio(EC50),CD73-ND-K180A,2.7 fold
same,Ratio(EC50),CD73-ND-his,1 fold
same,Ratio(EC50),CD73-ND-L181A [2],1.9 fold
same,Ratio(EC50),CD73-ND-V144A,2.5 fold
